The values below come from US20240270846A1 (published 2024).

Numbering of substitutions follows the chain as printed. Names and notes keep the numbering of the source.

The chains are these.
B1: GLS3000 N28L (Kabat) L chain altered form, one-arm antibody with CE115HA000 (antibody, human IgG1, kappa, L234A L235A, N297A, name in Kabat numbering)
heavy: QVQLVESGGGVVQPGRSLRLSCAASGFTFSNAWMHWVRQAPGKGLEWVAQIKAKSNNYATYYAESVKGRFTISRDDSKNSLYLQMNSLKTEDTAVYYCRYVHYGAYYGVDAWGQGTTVTVSSASTKGPSVFPLAPSSKSTSGGTAALGCLVKDYFPEPVTVSWNSGALTSGVHTFPAVLQSSGLYSLSSVVTVPSSSLGTQTYICNVNHKPSNTKVDKKVEPKSCDKTHTCPPCPAPEAAGGPSVFLFPPKPKDTLMISRTPEVTCVVVDVSHEDPEVKFNWYVDGVEVHNAKTKPREEQYASTYRVVSVLTVLHQDWLNGKEYKCKVSNKALPAPIEKTISKAKGQPREPQVYTLPPSRCELTKNQVSLSCAVKGFYPSDIAVEWESNGQPENNYKTTPPVLDSDGSFFLVSKLTVDKSRWQQGNVFSCSVMHEALHNHYTQKSLSLSPDYKDDDDK
chain: EPKSSDKTHTCPPCPAPELLGGPSVFLFPPKPKDTLMISRTPEVTCVVVDVSHEDPEVKFNWYVDGVEVHNAKTKPREEQYNSTYRVVSVLTVLHQDWLNGKEYKCKVSNKALPAPIEKTISKAKGQPREPQVCTLPPSRDELTKNQVSLWCLVKGFYPSDIAVEWESNGQPENNYKTTPPVLDSDGSFFLYSKLTVDKSRWQQGNVFSCSVMHEALHNRYTQKSLSLSP
light: DIVMTQSPLSLPVTPGEPASISCRSSQSLVHSLRNTYLHWYQQKPGQAPRLLIYKVSNRFSGVPDRFSGSGSGTDFTLKISRVEAEDVGVYYCGQGTQVPYTFGQGTKLEIKRTVAAPSVFIFPPSDEQLKSGTASVVCLLNNFYPREAKVQWKVDNALQSGNSQESVTEQDSKDSTYSLSSTLTLSKADYEKHKVYACEVTHQGLSSPVTKSFNRGEC
notes: one-arm antibody
B2: GLS3000 N30Q (Kabat) L chain altered form, one-arm antibody with CE115HA000 (antibody, human IgG1, kappa, L234A L235A, N297A, name in Kabat numbering)
heavy: B1 heavy
chain: B1 chain
light: B1 light with L33N, N35Q
notes: one-arm antibody
B3: GLS3000 N28P (Kabat) L chain altered form, one-arm antibody with CE115HA000 (antibody, human IgG1, kappa, L234A L235A, N297A, name in Kabat numbering)
heavy: B1 heavy
chain: B1 chain
light: B1 light with L33P
notes: one-arm antibody
B4: GLS3000 N28Y (Kabat) L chain altered form, one-arm antibody with CE115HA000 (antibody, human IgG1, kappa, L234A L235A, N297A, name in Kabat numbering)
heavy: B1 heavy
chain: B1 chain
light: B1 light with L33Y
notes: one-arm antibody
B5: GLS3000 N30G (Kabat) L chain altered form, one-arm antibody with CE115HA000 (antibody, human IgG1, kappa, L234A L235A, N297A, name in Kabat numbering)
heavy: B1 heavy
chain: B1 chain
light: B1 light with L33N, N35G
notes: one-arm antibody
B6: GLS3000 N30A (Kabat) L chain altered form, one-arm antibody with CE115HA000 (antibody, human IgG1, kappa, L234A L235A, N297A, name in Kabat numbering)
heavy: B1 heavy
chain: B1 chain
light: B1 light with L33N, N35A
notes: one-arm antibody
B7: GLS3000 N28M (Kabat) L chain altered form, one-arm antibody with CE115HA000 (antibody, human IgG1, kappa, L234A L235A, N297A, name in Kabat numbering)
heavy: B1 heavy
chain: B1 chain
light: B1 light with L33M
notes: one-arm antibody
B8: GLS3000 N30E (Kabat) L chain altered form, one-arm antibody with CE115HA000 (antibody, human IgG1, kappa, L234A L235A, N297A, name in Kabat numbering)
heavy: B1 heavy
chain: B1 chain
light: B1 light with L33N, N35E
notes: one-arm antibody
B9: GLS3000 N30S (Kabat) L chain altered form, one-arm antibody with CE115HA000 (antibody, human IgG1, kappa, L234A L235A, N297A, name in Kabat numbering)
heavy: B1 heavy
chain: B1 chain
light: B1 light with L33N, N35S
notes: one-arm antibody
B10: GLS3000 N30P (Kabat) L chain altered form, one-arm antibody with CE115HA000 (antibody, human IgG1, kappa, L234A L235A, N297A, name in Kabat numbering)
heavy: B1 heavy
chain: B1 chain
light: B1 light with L33N, N35P
notes: one-arm antibody
B11: GLS3000 N28Q (Kabat) L chain altered form, one-arm antibody with CE115HA000 (antibody, human IgG1, kappa, L234A L235A, N297A, name in Kabat numbering)
heavy: B1 heavy
chain: B1 chain
light: B1 light with L33Q
notes: one-arm antibody
B12: GLS3000 N28W (Kabat) L chain altered form, one-arm antibody with CE115HA000 (antibody, human IgG1, kappa, L234A L235A, N297A, name in Kabat numbering)
heavy: B1 heavy
chain: B1 chain
light: B1 light with L33W
notes: one-arm antibody
B13: GLS3000 N30D (Kabat) L chain altered form, one-arm antibody with CE115HA000 (antibody, human IgG1, kappa, L234A L235A, N297A, name in Kabat numbering)
heavy: B1 heavy
chain: B1 chain
light: B1 light with L33N, N35D
notes: one-arm antibody
B14: GLS3000 N28S (Kabat) L chain altered form, one-arm antibody with CE115HA000 (antibody, human IgG1, kappa, L234A L235A, N297A, name in Kabat numbering)
heavy: B1 heavy
chain: B1 chain
light: B1 light with L33S
notes: one-arm antibody
B15: GLS3000 N30M (Kabat) L chain altered form, one-arm antibody with CE115HA000 (antibody, human IgG1, kappa, L234A L235A, N297A, name in Kabat numbering)
heavy: B1 heavy
chain: B1 chain
light: B1 light with L33N, N35M
notes: one-arm antibody
B16: GLS3000 N30K (Kabat) L chain altered form, one-arm antibody with CE115HA000 (antibody, human IgG1, kappa, L234A L235A, N297A, name in Kabat numbering)
heavy: B1 heavy
chain: B1 chain
light: B1 light with L33N, N35K
notes: one-arm antibody
B17: GLS3000 N30I (Kabat) L chain altered form, one-arm antibody with CE115HA000 (antibody, human IgG1, kappa, L234A L235A, N297A, name in Kabat numbering)
heavy: B1 heavy
chain: B1 chain
light: B1 light with L33N, N35I
notes: one-arm antibody
B18: GLS3000 N30H (Kabat) L chain altered form, one-arm antibody with CE115HA000 (antibody, human IgG1, kappa, L234A L235A, N297A, name in Kabat numbering)
heavy: B1 heavy
chain: B1 chain
light: B1 light with L33N, N35H
notes: one-arm antibody
B19: GLS3000 N28T (Kabat) L chain altered form, one-arm antibody with CE115HA000 (antibody, human IgG1, kappa, L234A L235A, N297A, name in Kabat numbering)
heavy: B1 heavy
chain: B1 chain
light: B1 light with L33T
notes: one-arm antibody
B20: GLS3000 N28V (Kabat) L chain altered form, one-arm antibody with CE115HA000 (antibody, human IgG1, kappa, L234A L235A, N297A, name in Kabat numbering)
heavy: B1 heavy
chain: B1 chain
light: B1 light with L33V
notes: one-arm antibody
B21: GLS3000 N30R (Kabat) L chain altered form, one-arm antibody with CE115HA000 (antibody, human IgG1, kappa, L234A L235A, N297A, name in Kabat numbering)
heavy: B1 heavy
chain: B1 chain
light: B1 light with L33N, N35R
notes: one-arm antibody
B22: GLS3000 N30L (Kabat) L chain altered form, one-arm antibody with CE115HA000 (antibody, human IgG1, kappa, L234A L235A, N297A, name in Kabat numbering)
heavy: B1 heavy
chain: B1 chain
light: B1 light with L33N, N35L
notes: one-arm antibody

The target in this test is T1, CD3 epsilon homodimer protein (UniProt P07766 23-126).
T1 construct: construct not described; homodimer as printed; also called CD3 (CD3 epsilon)
T1 sequence (P07766 23-126): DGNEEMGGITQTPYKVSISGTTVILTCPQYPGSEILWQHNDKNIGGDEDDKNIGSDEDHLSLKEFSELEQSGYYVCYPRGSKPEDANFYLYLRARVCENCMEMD
The test is described as follows: SPR Biacore T200, CD3 epsilon homodimer immobilized; vs unaltered GLS3000.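 Also: antibody variants flowed as analyte over CD3 epsilon homodimer amine-coupled to a CM4 chip, at 25 °C in HBS-EP+ running buffer, fitted with Biacore T200 Evaluation Software.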 On the technique in general: SPR reads the build-up and loss of mass on a sensor chip optically.
With B1, the “KD ratio to GLS3000 (Affinity up)” value stood at 3.34. Take B2: the “KD ratio to GLS3000 (Affinity up)” value came out at 1.

In the case of B3, the “KD ratio to GLS3000 (Affinity up)” value is 4.18. The result for B4 reads 3.89; that for B5, 2.1; that for B6, 1.16.

As for B7, the “KD ratio to GLS3000 (Affinity up)” value stood at 3.29. As for B8, the “KD ratio to GLS3000 (Affinity up)” value came to 2.83. Take B9: the “KD ratio to GLS3000 (Affinity up)” value was determined as 10.6. With B10, the “KD ratio to GLS3000 (Affinity up)” value came to 12.1. B11: the “KD ratio to GLS3000 (Affinity up)” value is 3.48. The result for B12 reads 3.17. With B13, the “KD ratio to GLS3000 (Affinity up)” value was 3.82. Regarding B14, the “KD ratio to GLS3000 (Affinity up)” value came out at 4.3. As for B15, the “KD ratio to GLS3000 (Affinity up)” value worked out at 1.2. Under B16 stands 1.35; under B17, 1.24. With B18, the “KD ratio to GLS3000 (Affinity up)” value turned out to be 1.08. Under B19 stands 2.67; under B20, 3.73. As for B21, the “KD ratio to GLS3000 (Affinity up)” value turned out to be 1.73. Regarding B22, the “KD ratio to GLS3000 (Affinity up)” value amounted to 1.19.
